Source: PMC6981973

Molecular target: transferrin receptor (TfR) (human (endogenous in Caco-2)) (UniProt P02786)
Sequence (P02786 whole entry): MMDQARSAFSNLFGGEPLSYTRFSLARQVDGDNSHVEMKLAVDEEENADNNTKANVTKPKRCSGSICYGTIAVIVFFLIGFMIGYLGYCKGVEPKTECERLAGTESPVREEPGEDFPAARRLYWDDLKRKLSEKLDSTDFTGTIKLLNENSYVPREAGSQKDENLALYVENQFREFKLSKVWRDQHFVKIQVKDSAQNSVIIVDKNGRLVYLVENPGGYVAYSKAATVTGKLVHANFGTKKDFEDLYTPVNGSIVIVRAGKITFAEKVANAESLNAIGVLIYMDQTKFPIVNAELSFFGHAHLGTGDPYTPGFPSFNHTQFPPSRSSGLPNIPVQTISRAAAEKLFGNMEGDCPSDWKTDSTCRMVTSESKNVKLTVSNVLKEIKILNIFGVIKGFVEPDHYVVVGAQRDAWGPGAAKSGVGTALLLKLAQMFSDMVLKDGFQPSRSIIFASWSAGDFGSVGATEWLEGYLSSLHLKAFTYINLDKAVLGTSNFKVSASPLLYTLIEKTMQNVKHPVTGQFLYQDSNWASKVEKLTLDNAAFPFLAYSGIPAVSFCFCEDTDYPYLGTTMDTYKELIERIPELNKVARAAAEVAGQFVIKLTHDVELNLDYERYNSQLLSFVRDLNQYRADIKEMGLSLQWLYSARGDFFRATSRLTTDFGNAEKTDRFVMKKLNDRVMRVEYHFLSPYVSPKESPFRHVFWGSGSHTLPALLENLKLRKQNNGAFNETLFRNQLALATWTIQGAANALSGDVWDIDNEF

Chain of rFIX-Tf/Dithi (P02787 whole entry, looked up): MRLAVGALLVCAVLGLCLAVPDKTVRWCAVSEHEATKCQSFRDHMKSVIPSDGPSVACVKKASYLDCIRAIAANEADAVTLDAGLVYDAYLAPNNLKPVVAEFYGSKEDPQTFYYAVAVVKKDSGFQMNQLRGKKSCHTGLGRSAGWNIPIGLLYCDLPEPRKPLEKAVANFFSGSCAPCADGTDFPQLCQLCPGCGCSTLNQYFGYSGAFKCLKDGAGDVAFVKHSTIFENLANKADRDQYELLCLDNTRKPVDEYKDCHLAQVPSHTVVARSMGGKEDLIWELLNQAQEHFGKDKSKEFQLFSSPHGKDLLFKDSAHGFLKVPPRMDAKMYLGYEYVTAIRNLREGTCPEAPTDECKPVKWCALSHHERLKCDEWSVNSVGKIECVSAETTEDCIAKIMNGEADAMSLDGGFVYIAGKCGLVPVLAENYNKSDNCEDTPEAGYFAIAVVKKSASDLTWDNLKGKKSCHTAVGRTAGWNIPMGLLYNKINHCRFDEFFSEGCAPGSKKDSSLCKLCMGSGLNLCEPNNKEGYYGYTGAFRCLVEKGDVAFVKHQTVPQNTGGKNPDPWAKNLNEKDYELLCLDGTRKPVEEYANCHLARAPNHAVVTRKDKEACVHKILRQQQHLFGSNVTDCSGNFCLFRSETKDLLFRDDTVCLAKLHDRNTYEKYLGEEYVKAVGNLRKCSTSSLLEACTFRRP
Chain of rFIX-Tf/Dithi (P00740 whole entry, looked up): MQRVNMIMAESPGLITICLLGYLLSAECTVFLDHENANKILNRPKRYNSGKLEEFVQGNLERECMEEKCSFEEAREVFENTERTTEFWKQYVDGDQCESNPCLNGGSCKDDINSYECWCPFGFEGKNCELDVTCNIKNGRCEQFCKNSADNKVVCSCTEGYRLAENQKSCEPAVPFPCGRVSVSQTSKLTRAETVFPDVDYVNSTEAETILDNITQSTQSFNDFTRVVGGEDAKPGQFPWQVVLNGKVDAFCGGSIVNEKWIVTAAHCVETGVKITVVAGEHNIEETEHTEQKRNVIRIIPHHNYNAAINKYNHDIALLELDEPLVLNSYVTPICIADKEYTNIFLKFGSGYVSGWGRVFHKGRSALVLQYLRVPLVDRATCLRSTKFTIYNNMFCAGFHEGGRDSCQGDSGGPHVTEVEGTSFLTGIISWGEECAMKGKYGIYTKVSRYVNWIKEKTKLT

Substance	specific (total minus nonspecific with 100-fold excess Tf) apical-to-basolateral transcytosis across Caco-2 monolayers, about 100 mIU/mL apical, 2, 4 and 6 h; protein transport rate at 6 h [%]	specific apical-to-basolateral transcytosis across Caco-2 monolayers at 6 h, fold over BeneFIX [fold]	specific apical-to-basolateral transcytosis across Caco-2 monolayers, fold over FIX-Tf (LE dipeptide linker) [fold]
BeneFIX^®, a marketed coagulation factor IX (recombinant) product (enzyme)	0.024	–	–
rFIX-Tf/Dithi (from UniProt P00740 47-461; P02787 20-698)	–	4.4	1.5
